Values of other authors, collected in PMC7042059.

Target: Pyruvate kinase M2 (Homo sapiens) (UniProt P14618)
Details: cited from earlier work

Chain of Pyruvate kinase M2 (P14618 2-531): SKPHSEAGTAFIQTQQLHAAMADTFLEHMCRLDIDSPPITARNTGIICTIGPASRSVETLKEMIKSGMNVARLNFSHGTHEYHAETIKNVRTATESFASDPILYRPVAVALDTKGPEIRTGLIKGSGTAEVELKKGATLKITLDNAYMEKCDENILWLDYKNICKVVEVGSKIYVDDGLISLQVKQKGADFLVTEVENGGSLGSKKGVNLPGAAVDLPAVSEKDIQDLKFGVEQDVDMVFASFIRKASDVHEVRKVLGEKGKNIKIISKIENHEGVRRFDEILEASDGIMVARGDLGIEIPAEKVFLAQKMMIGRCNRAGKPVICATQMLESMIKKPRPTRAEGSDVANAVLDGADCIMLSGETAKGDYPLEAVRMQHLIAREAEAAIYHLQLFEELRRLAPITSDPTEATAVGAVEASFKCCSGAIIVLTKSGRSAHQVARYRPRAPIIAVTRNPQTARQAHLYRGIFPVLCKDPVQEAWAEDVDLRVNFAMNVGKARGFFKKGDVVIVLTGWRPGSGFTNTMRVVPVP

## Pyruvate kinase M2 (from UniProt P14618)
  Kd: 1000 nM
